These results are taken from patent US20240239875A1 (published 2024).

Test in all cases: ELISA
For one assay, the target named is T1, HKU1 spike protein (HCoV-HKU1).
T1 chain: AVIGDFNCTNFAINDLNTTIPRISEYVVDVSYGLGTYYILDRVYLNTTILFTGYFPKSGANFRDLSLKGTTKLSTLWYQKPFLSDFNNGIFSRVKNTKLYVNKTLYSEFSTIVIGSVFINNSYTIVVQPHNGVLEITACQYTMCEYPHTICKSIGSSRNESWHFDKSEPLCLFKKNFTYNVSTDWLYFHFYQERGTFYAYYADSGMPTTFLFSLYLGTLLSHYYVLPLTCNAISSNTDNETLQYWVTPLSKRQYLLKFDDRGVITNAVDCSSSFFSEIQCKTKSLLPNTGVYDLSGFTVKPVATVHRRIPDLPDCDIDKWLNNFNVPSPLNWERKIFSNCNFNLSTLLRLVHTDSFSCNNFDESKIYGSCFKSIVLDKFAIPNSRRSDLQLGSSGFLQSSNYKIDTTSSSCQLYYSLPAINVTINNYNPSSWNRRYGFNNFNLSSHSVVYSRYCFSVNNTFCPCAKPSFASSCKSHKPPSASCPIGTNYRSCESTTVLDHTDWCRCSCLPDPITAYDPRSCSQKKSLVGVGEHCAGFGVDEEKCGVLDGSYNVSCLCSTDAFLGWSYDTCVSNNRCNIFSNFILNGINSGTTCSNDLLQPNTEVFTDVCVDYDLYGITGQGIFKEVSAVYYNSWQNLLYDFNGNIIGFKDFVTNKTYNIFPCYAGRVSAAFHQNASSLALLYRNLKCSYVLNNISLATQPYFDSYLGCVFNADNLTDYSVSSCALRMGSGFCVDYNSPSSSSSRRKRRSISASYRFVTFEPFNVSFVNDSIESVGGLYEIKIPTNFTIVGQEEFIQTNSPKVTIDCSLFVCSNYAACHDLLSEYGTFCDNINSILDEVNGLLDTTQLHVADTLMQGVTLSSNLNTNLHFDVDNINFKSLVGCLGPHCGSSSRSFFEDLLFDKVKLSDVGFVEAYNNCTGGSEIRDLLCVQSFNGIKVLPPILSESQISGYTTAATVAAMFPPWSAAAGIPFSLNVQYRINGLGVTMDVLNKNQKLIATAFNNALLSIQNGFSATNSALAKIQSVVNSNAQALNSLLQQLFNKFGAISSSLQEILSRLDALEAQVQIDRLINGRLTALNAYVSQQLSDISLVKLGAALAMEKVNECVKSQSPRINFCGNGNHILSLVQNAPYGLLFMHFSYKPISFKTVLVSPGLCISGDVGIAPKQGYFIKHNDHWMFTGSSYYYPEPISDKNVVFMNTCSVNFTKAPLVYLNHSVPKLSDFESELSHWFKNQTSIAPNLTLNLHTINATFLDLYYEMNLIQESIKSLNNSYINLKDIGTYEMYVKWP

For the next assay, the target named is T2, HCoV-OC43 spike protein (HCoV-OC43).
T2 chain: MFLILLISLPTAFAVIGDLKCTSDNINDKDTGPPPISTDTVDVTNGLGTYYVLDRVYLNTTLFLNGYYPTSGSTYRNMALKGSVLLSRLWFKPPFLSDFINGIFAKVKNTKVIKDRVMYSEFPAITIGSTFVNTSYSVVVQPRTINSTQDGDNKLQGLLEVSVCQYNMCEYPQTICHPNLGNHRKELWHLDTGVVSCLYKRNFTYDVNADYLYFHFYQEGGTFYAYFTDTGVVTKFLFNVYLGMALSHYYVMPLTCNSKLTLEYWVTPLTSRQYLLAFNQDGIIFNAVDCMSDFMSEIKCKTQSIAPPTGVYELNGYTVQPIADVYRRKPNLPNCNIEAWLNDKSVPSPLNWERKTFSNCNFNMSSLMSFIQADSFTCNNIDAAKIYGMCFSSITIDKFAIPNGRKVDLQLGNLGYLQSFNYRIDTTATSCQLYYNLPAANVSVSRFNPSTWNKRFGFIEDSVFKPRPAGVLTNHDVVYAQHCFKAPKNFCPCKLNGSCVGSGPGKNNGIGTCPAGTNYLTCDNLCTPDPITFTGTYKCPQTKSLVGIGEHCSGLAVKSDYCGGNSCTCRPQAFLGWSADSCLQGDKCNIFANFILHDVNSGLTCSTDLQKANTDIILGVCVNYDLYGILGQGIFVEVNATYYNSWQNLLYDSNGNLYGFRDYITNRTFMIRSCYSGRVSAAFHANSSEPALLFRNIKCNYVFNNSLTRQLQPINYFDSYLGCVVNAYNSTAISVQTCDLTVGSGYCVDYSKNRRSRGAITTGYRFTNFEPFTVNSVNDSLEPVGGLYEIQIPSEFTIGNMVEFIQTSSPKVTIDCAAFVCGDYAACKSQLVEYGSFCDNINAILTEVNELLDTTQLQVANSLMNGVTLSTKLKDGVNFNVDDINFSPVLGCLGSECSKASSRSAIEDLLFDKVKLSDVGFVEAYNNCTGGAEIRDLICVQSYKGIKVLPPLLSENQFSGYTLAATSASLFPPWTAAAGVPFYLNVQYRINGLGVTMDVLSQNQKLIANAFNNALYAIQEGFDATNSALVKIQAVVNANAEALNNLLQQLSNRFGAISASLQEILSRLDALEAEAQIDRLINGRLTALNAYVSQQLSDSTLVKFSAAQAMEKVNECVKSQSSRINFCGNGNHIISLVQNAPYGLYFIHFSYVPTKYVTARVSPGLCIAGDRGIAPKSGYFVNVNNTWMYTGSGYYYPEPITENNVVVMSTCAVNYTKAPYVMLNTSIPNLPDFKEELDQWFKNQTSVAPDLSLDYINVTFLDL

The target of another assay is SARS-CoV-2 S2 domain (UniProt P0DTC2 686-1213).
Assay [1] has as its target SARS-CoV-2 prefusion stabilized trimer protein (WIV02 isolate spike protein) (UniProt P0DTC2 14-1213).

B1: 7-D7-A (antibody, V domains shown)
VH: QVQLKESGPGLVAPSQSLSITCTVSGFSLTSYAISWVRQPPGKGLEWLGVIWPGGGTNYNSALKSRLSISKDNSKSQVFLKMNSLQTDDTAKYYCARTGYYFDYWGQGTTLTVSS
VL: QLILTQSPAIMSASPGEKVTMTCSASLSVNYMYWFQQKPGTSPKRWIHDTSKLASGVPARFSGSGSGTSYSLTISSMEAEDAATYYCQQWSSNPPMYTFGGGTKLEIK
Regarding B1, the EC50 with HKU1 spike protein worked out at 1300 pM; in the assay with HCoV-OC43 spike protein it was 230 pM.

B2: 8-A17-A (antibody, V domains shown)
VH: QVQLKESGPGLVAPSQSLSITCTVSGFSLTSYAISWVRQPPGKGLEWLGVVWPGGGTNYNSALKSRLSINKDNSKSQVFLKMNSLQTDDTGRYYCARTGYHFDYWGQGTTLTVSS
VL: QIVLTQSPAIMSASPGEKVTMTCSVSSSVSYMHWYQQKSGTSPKRWIYDTSKLASGVPARFSGSGSGTSYSLTISSMEAEDAATYYCQQWSSNPPMYTFGGGTKLEIK
B2: the concentration giving a half-maximal response (EC50) in the assay with HKU1 spike protein is 370 pM; in the assay with HCoV-OC43 spike protein, 50 pM.

B3: 6-O12-A (antibody, V domains shown)
VH: QVQLQQPGTELVKPGASVKLSCKASGYTFTSYWMHWVKQRPGQGLEWIGNINPSNGGTNYNEKFRSKATLTVDKSSSTAYMQLSSLTSEDSAVYYCARLGWFLPLGSWGQGTTLTVSS
VL: QIVLTQSPAIMSASLGEVITLTCSASSSVSYMHWYQQKSGTSPKLLIYSTSNLASGVPSRFSGSGSGTFYSLTISSVEAEDAADYYCHQWSGYMYTFGGGTKLEIK
Consider B3, for which the EC50 in the assay with HKU1 spike protein stood at 410 pM; with HCoV-OC43 spike protein, 230 pM.

B4: 2-G20-A (antibody, V domains shown)
VH: EVQLQQSGPELVKPGASVKMSCKASGYTFPSYVLHWVKQKPGQGLEWIGYIYPYNDGTNYNEKFKGKATLTSDKSSSTAYMELSSLTSEDSAVYYCARGDYGDSAWFPYWGQGTLVTVSA
VL: DIVLTQSPASLAVSLGQRATISCRASKSVSTSGYSYMHWYQQKPGQPPKLLIYLASNLKSGVPARFSGGGSGTDFTLNIHPVEEEDAATYYCQLSRELPWTFGGGTKLEIK
Turning to B4, the EC50 with HKU1 spike protein worked out at 1390 pM; with HCoV-OC43 spike protein, 280 pM.

B5: 1-L10-A (antibody, V domains shown)
VH: EVKLEESGGGLVQPGGSMKLSCVASGFTFNNYWMNWVRQSPEKGLEWVAQMRLKSDNYATHYAESVKGRFTISRDDSKSSVYLQMNNLRAEDTGIYYCIEGYWTYWGQGTLVTVSA
VL: QIVLTQSPAIMSASLGERVTMTCTASSSVSSSYLHWYQQKPGSSPKLWIYSTSNLASGVPARFSGNGSGTSYSLTISSMEAEDAATYYCLQYHRSPPYTFGGGTKLEIK
Turning to B5, the EC50 with HKU1 spike protein came to 2730 pM; in the assay with HCoV-OC43 spike protein it was 770 pM.

B6: 9-F6-A (antibody, V domains shown)
VH: EVQLQQSGPELVKPGASVKMSCKASGYTFTSYIMHWVKQKPGQGLEWIGYILPYNDGTKYNEKFKGKATLTSDKSSSTAYMELRSLTSEDSAVYYCARWGYSNFLDSWGQGTTLTVSS
VL: DIQMTQTTSSLSASLGDRVTISCRASQDINNYLNWYQQKPDGTVKLLIYYTSRLHSGVPSRFSGSGSGTDYSLTIRNLEQEDIATYFCQQGNTLPPTFGGGTKLEIK
B6: the EC50 with HKU1 spike protein was determined as 610 pM; in the assay with HCoV-OC43 spike protein, 50 pM.

B7: 1-B11-A (antibody, V domains shown)
VH: QVQLQQSGPELVKPGASVKISCKASGYTFTDHYINWVKQRPGQGLEWIGWIFPGSGSTYYNEQFKGKATLTVDKSSNTAYMLLSSLTSEDSAVYFCARSGGLRLGFAYWGQGTLVTVSA
VL: DIQMTQTTSSLSASLGDRVTISCRASQDISNYLNWYQQKPDGTVKLLIYYTSRLHSGVPSRFSGSGSGTDYSLTISNLEQEDISTYFCQQVNTLPYTFGGGTKLEIK
B7: the EC50 with SARS-CoV-2 S2 domain was determined as 6620 pM; with HKU1 spike protein, 820 pM; with HCoV-OC43 spike protein, 570 pM; in assay [1], 10300 pM.
